Assay results from the supplement of paper PMC10724198.
± gives the standard deviation of the averaged measurements.

Assays:
Saccharomyces cerevisiae [1] = test: protein stability index of tFT-peptide fusion (C-terminal peptide) (PSI (0-1 scale)); higher = more stable (slower turnover); details: genetic background: wild type; temperature: 30 C
Saccharomyces cerevisiae [2] = test: as above
Description: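 MPS profiling in S. cerevisiae of the tFT-X12 degron library: putative degron peptides plus stable controls, 12 aa, fused to the C-terminus of a sfGFP-mCherry timer. Cells are FACS-sorted into 8 mCherry/sfGFP bins and deep-sequenced. PSI runs from 0 (unstable) to 1 (stable). Backgrounds are wild type, das1Δ and doa10Δ at 30 °C, and wild type, das1Δ, cdc34-1 and cdc53-1 at 37 °C; 2-3 technical replicates each.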

[3] = genetic background: cdc34-1, temperature: 37 C
[4] = genetic background: cdc53-1, temperature: 37 C
[5] = genetic background: das1 deletion, temperature: 30 C
[6] = genetic background: das1 deletion, temperature: 37 C
[7] = genetic background: doa10 deletion, temperature: 30 C
[8] = genetic background: wild type, temperature: 30 C
[9] = genetic background: wild type, temperature: 37 C
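Also: PSI is a weighted mean of sequencing reads over stability bins, variants kept only with over 10 reads, mCherry proximal and sfGFP distal, peptide attached via GGGS linker.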

PRPLLSIYLRHA
protein stability index (Saccharomyces cerevisiae [1]): 0.405 ± 0.018
protein stability index (Saccharomyces cerevisiae [2]; [3]): 0.597 ± 0.036
protein stability index (Saccharomyces cerevisiae [2]; [4]): 0.666 ± 0.014
protein stability index (Saccharomyces cerevisiae [2]; [5]): 0.599 ± 0.023
protein stability index (Saccharomyces cerevisiae [2]; [6]): 0.69 ± 0.019
protein stability index (Saccharomyces cerevisiae [2]; [7]): 0.29 ± 0.013
protein stability index (Saccharomyces cerevisiae [2]; [8]): 0.315 ± 0.017
protein stability index (Saccharomyces cerevisiae [2]; [9]): 0.553 ± 0.022

PRQPSKSNASNR
protein stability index (Saccharomyces cerevisiae [1]): 0.582 ± 0.13
protein stability index (Saccharomyces cerevisiae [2]; [3]): 0.692 ± 0.044
protein stability index (Saccharomyces cerevisiae [2]; [4]): 0.7277 ± 0.00076
protein stability index (Saccharomyces cerevisiae [2]; [5]): 0.623 ± 0.023
protein stability index (Saccharomyces cerevisiae [2]; [6]): 0.722 ± 0.015
protein stability index (Saccharomyces cerevisiae [2]; [7]): 0.64909 ± 0.00052
protein stability index (Saccharomyces cerevisiae [2]; [8]): 0.635 ± 0.0095
protein stability index (Saccharomyces cerevisiae [2]; [9]): 0.701 ± 0.022

PSIALVRLDVIC
protein stability index (Saccharomyces cerevisiae [1]): 0.392 ± 0.017
protein stability index (Saccharomyces cerevisiae [2]; [3]): 0.383 ± 0.0059
protein stability index (Saccharomyces cerevisiae [2]; [4]): 0.471 ± 0.0073
protein stability index (Saccharomyces cerevisiae [2]; [5]): 0.32 ± 0.038
protein stability index (Saccharomyces cerevisiae [2]; [6]): 0.46 ± 0.004
protein stability index (Saccharomyces cerevisiae [2]; [7]): 0.297 ± 0.011
protein stability index (Saccharomyces cerevisiae [2]; [8]): 0.327 ± 0.031
protein stability index (Saccharomyces cerevisiae [2]; [9]): 0.443 ± 0.0051

PSPFHSFYLRLI
protein stability index (Saccharomyces cerevisiae [1]): 0.398 ± 0.033
protein stability index (Saccharomyces cerevisiae [2]; [3]): 0.5716 ± 0.0014
protein stability index (Saccharomyces cerevisiae [2]; [4]): 0.643 ± 0.009
protein stability index (Saccharomyces cerevisiae [2]; [5]): 0.579 ± 0.011
protein stability index (Saccharomyces cerevisiae [2]; [6]): 0.712 ± 0.028
protein stability index (Saccharomyces cerevisiae [2]; [7]): 0.263 ± 0.0033
protein stability index (Saccharomyces cerevisiae [2]; [8]): 0.249 ± 0.014
protein stability index (Saccharomyces cerevisiae [2]; [9]): 0.483 ± 0.0017

PSPPPYAPPIPA
protein stability index (Saccharomyces cerevisiae [1]): 0.488 ± 0.0057
protein stability index (Saccharomyces cerevisiae [2]; [3]): 0.549 ± 0.03
protein stability index (Saccharomyces cerevisiae [2]; [4]): 0.611 ± 0.055
protein stability index (Saccharomyces cerevisiae [2]; [5]): 0.44 ± 0.023
protein stability index (Saccharomyces cerevisiae [2]; [6]): 0.5857 ± 0.0057
protein stability index (Saccharomyces cerevisiae [2]; [7]): 0.416 ± 0.019
protein stability index (Saccharomyces cerevisiae [2]; [8]): 0.447 ± 0.021
protein stability index (Saccharomyces cerevisiae [2]; [9]): 0.563 ± 0.02

PSSPTPPPSSSP
protein stability index (Saccharomyces cerevisiae [1]): 0.353 ± 0.039
protein stability index (Saccharomyces cerevisiae [2]; [3]): 0.655 ± 0.021
protein stability index (Saccharomyces cerevisiae [2]; [4]): 0.726 ± 0.011
protein stability index (Saccharomyces cerevisiae [2]; [5]): 0.664 ± 0.017
protein stability index (Saccharomyces cerevisiae [2]; [6]): 0.73 ± 0.0086
protein stability index (Saccharomyces cerevisiae [2]; [7]): 0.679 ± 0.017
protein stability index (Saccharomyces cerevisiae [2]; [8]): 0.673 ± 0.011
protein stability index (Saccharomyces cerevisiae [2]; [9]): 0.7306 ± 0.0015

PSSVKLRVPSLY
protein stability index (Saccharomyces cerevisiae [1]): 0.7075 ± 0.0025
protein stability index (Saccharomyces cerevisiae [2]; [3]): 0.672 ± 0.029
protein stability index (Saccharomyces cerevisiae [2]; [4]): 0.762 ± 0.033
protein stability index (Saccharomyces cerevisiae [2]; [5]): 0.623 ± 0.021
protein stability index (Saccharomyces cerevisiae [2]; [6]): 0.7309 ± 0.00087
protein stability index (Saccharomyces cerevisiae [2]; [7]): 0.61091 ± 0.00013
protein stability index (Saccharomyces cerevisiae [2]; [8]): 0.636 ± 0.015
protein stability index (Saccharomyces cerevisiae [2]; [9]): 0.715 ± 0.033

PTPSRPPHPPLR
protein stability index (Saccharomyces cerevisiae [1]): 0.704 ± 0.02
protein stability index (Saccharomyces cerevisiae [2]; [3]): 0.704 ± 0.049
protein stability index (Saccharomyces cerevisiae [2]; [4]): 0.752 ± 0.05
protein stability index (Saccharomyces cerevisiae [2]; [5]): 0.633 ± 0.013
protein stability index (Saccharomyces cerevisiae [2]; [6]): 0.725 ± 0.054
protein stability index (Saccharomyces cerevisiae [2]; [7]): 0.658 ± 0.025
protein stability index (Saccharomyces cerevisiae [2]; [8]): 0.66 ± 0.0015
protein stability index (Saccharomyces cerevisiae [2]; [9]): 0.69 ± 0.0022

PVALYPVQAYLT
protein stability index (Saccharomyces cerevisiae [1]): 0.2307 ± 0.0013
protein stability index (Saccharomyces cerevisiae [2]; [3]): 0.5565 ± 0.0049
protein stability index (Saccharomyces cerevisiae [2]; [4]): 0.71 ± 0.025
protein stability index (Saccharomyces cerevisiae [2]; [5]): 0.616 ± 0.012
protein stability index (Saccharomyces cerevisiae [2]; [6]): 0.715 ± 0.022
protein stability index (Saccharomyces cerevisiae [2]; [7]): 0.119 ± 0.01
protein stability index (Saccharomyces cerevisiae [2]; [8]): 0.146 ± 0.017
protein stability index (Saccharomyces cerevisiae [2]; [9]): 0.265 ± 0.094

PVFVLFFFSSLV
protein stability index (Saccharomyces cerevisiae [1]): 0.44 ± 0.012
protein stability index (Saccharomyces cerevisiae [2]; [3]): 0.421 ± 0.012
protein stability index (Saccharomyces cerevisiae [2]; [4]): 0.533 ± 0.0086
protein stability index (Saccharomyces cerevisiae [2]; [5]): 0.371 ± 0.028
protein stability index (Saccharomyces cerevisiae [2]; [6]): 0.5579 ± 0.0041
protein stability index (Saccharomyces cerevisiae [2]; [7]): 0.329 ± 0.011
protein stability index (Saccharomyces cerevisiae [2]; [8]): 0.35 ± 0.013
protein stability index (Saccharomyces cerevisiae [2]; [9]): 0.5151 ± 0.0018
